Measured values from patent US20240228543.

B1: USP27x alone (DUBprofiler panel) (protein)
chain: MCKDYVYDKDIEQIAKEEQGEALKLQASTSTEVSHQQCSVPGLGEKFPTWETTKPELELLGHNPRRRRITSSFTIGLRGLINLGNTCFMNCIVQALTHTPILRDFFLSDRHRCEMPSPELCLVCEMSSLFRELYSGNPSPHVPYKLLHLVWIHARHLAGYRQQDAHEFLIAALDVLHRHCKGDDVGKAANNPNHCNCIIDQIFTGGLQSDVTCQACHGVSTTIDPCWDISLDLPGSCTSFWPMSPGRESSVNGESHIPGITTLTDCLRRFTRPEHLGSSAKIKCGSCQSYQESTKQLTMNKLPVVACFHFKRFEHSAKQRRKITTYISFPLELDMTPFMASSKESRMNGQLQLPTNSGNNENKYSLFAVVNHQGTLESGHYTSFIRHHKDQWFKCDDAVITKASIKDVLDSEGYLLFYHKQVLEHESEKVKEMNTQAY
- ubiquitin-rhodamine(110)-glycine cleavage with 1 µM hD1 (DUBprofiler) (hD1 cyclic peptide): USP27x, whose activity was reduced by ˜50%

B2: human SAGA deubiquitinating module (USP22/ATXN7L3/ENY2/ATXN7), construct lacking the Avi tag, 6xHis tag cleaved (protein)
chain 1: MVSRPEPEGEAMDAELAVAPPGCSHLGSFKVDNWKQNLRAIYQCFVWSGTAEARKRKAKSCICHVCGVHLNRLHSCLYCVFFGCFTKKHIHEHAKAKRHNLAIDLMYGGIYCFLCQDYIYDKDMEIIAKEEQRKAWKMQGVGEKFSTWEPTKRELELLKHNPKRRKITSNCTIGLRGLINLGNTCFMNCIVQALTHTPLLRDFFLSDRHRCEMQSPSSCLVCEMSSLFQEFYSGHRSPHIPYKLLHLVWTHARHLAGYEQQDAHEFLIAALDVLHRHCKGDDNGKKANNPNHCNCIIDQIFTGGLQSDVTCQVCHGVSTTIDPFWDISLDLPGSSTPFWPLSPGSEGNVVNGESHVSGTTTLTDCLRRFTRPEHLGSSAKIKCSGCHSYQESTKQLTMKKLPIVACFHLKRFEHSAKLRRKITTYVSFPLELDMTPFMASSKESRMNGQYQQPTDSLNNDNKYSLFAVVNHQGTLESGHYTSFIRQHKDQWFKCDDAIITKASIKDVLDSEGYLLFYHKQFLEYE
chain 2: ERAADDVRGEPRRAAAAAGGAAAAAARQQQQQQQQQQPPPPQPQRQQHPPPPPRRTRPEDGGPGAASTSAAAMATVGERRPLPSPEVMLGQSWNLWVEASKLPGKDGTELDESFKEFGKNREVMGLCREDMPIFGFCPAHDDFYLVVCN
chain 3: MKMEEMSLSGLDNSKLEAIAQEIYADLVEDSCLGFCFEVHRAVKCGYFFLDDTDPDSMKDFEIVDQPGLDIFGQVFNQWKSKECVCPNCSRSIAASRFAPHLEKCLGMGRNSSRIANRRIANSNNMNKSESDQEDNDDINDNDWSYGSEKKAKKRKSDKNPNSPRRSKSLKHKNGELSNSDPFKYNNSTGISYETLGPEELRSLLTTQCGVISEHTKKMCTRSLRCPQHTDEQRRTVRIYFLGPSAVLPEVESSLDNDSFDMTDSQALISRLQWDGSSDLSPSDSGSSKTSENQGWGLGTNSSESRKTKKKKSHLSLVGTASGLGSNKKKKPKPPAPPTPSIYDDIN
chain 4: MVVSKMNKDAQMRAAINQKLIETGERERLKELLRAKLIECGWKDQLKAHCKEVIKEKGLEHVTVDDLVAEITPKGRALVPDSVKKELLQRIRTFLAQHASL
- Ub-AMC cleavage with 1 µM hD1 (hD1 cyclic peptide): the USP22/DUB module has no detectable activity under these conditions
- cleavage of nucleosomal H2B-Ub (200 nM hDUBm, 1 µM peptide) (hD1 cyclic peptide): With the exception of hD4, all of the cyclic peptide leads were potent inhibitors of nucleosomal H2B-Ub cleavage by the human DUB module
- cleavage of nucleosomal H2B-Ub (200 nM hDUBm, 1 µM peptide) (hD2 cyclic peptide): With the exception of hD4, all of the cyclic peptide leads were potent inhibitors of nucleosomal H2B-Ub cleavage by the human DUB module
- cleavage of nucleosomal H2B-Ub (200 nM hDUBm, 1 µM peptide) (hD3 cyclic peptide): With the exception of hD4, all of the cyclic peptide leads were potent inhibitors of nucleosomal H2B-Ub cleavage by the human DUB module
- cleavage of nucleosomal H2B-Ub (200 nM hDUBm, 1 µM peptide) (hD4 cyclic peptide): also showed very weak inhibition of hDUBm on nucleosomal H2B-Ub
- cleavage of nucleosomal H2B-Ub (200 nM hDUBm, 1 µM peptide) (hD5 cyclic peptide): With the exception of hD4, all of the cyclic peptide leads were potent inhibitors of nucleosomal H2B-Ub cleavage by the human DUB module
- cleavage of nucleosomal H2B-Ub (200 nM hDUBm, 1 µM peptide) (hL1 cyclic peptide): With the exception of hD4, all of the cyclic peptide leads were potent inhibitors of nucleosomal H2B-Ub cleavage by the human DUB module
- Ub-AMC cleavage over a range of yD1 concentrations (yD1 cyclic peptide): yD1 also did not inhibit the human DUBm

B3: USP30 (protein)
chain: TERKKRRKGLVPGLVNLGNTCFMNSLLQGLSACPAFIRWLEEFTSQYSRDQKEPPSHQYLSLTLLHLLKALSCQEVTDDEVLDASCLLDVLRMYRWQISSFEEQDAHELFHVITSSLEDERDRQPRVTHLFDVHSLEQQSEITPKQITCRTRGSPHPTSNHWKSQHPFHGRLTSNMVCKHCEHQSPVRFDTFDSLSLSIPAATWGHPLTLDHCLHHFISSESVRDVVCDNCTKIEAKGTLNGEKVEHQRTTFVKQLKLGKLPQCLCIHLQRLSWSSHGTPLKRHEHVQFNEFLMMDIYKYHLLGHKPSQHNPKLNKNPGPTLELQDGPGAPTPVLNQPGAPKTQIFMNGACSPSLLPTLSAPMPFPLPVVPDYSSSTYLFRLMAVVVHHGDMHSGHFVTYRRSPPSARNPLSTSNQWLWVSDDTVRKASLQEVLSSSAYLLFYERVLSRMQHQSQECKSEE
- ubiquitin-AMC cleavage with 1 µM hD1 (hD1 cyclic peptide): only a very modest (˜15%) effect on USP30

B4: yeast SAGA DUB module (Ubp8/Sgf11/Sgf73 1-105/Sus1), construct lacking the Avi tag, 6xHis tag cleaved (protein)
chain 1: MSICPHIQQVFQNEKSKDGVLKTCNAARYILNHSVPKEKFLNTMKCGTCHEINSGATFMCLQCGFCGCWNHSHFLSHSKQIGHIFGINSNNGLLFCFKCEDYIGNIDLINDAILAKYWDDVCTKTMVPSMERRDGLSGLINMGSTCFMSSILQCLIHNPYFIRHSMSQIHSNNCKVRSPDKCFSCALDKIVHELYGALNTKQASSSSTSTNRQTGFIYLLTCAWKINQNLAGYSQQDAHEFWQFIINQIHQSYVLDLPNAKEVSRANNKQCECIVHTVFEGSLESSIVCPGCQNNSKTTIDPFLDLSLDIKDKKKLYECLDSFHKKEQLKDFNYHCGECNSTQDAIKQLGIHKLPSVLVLQLKRFEHLLNGSNRKLDDFIEFPTYLNMKNYCSTKEKDKHSENGKVPDIIYELIGIVSHKGTVNEGHYIAFCKISGGQWFKFNDSMVSSISQEEVLKEQAYLLFYTIRQVN
chain 2: MTEETITIDSISNGILNNLLTTLIQDIVARETTQQQLLKTRYPDLRSYYFDPNGSLDINGLQKQQESSQYIHCENCGRDVSANRLAAHLQRCLSRGARR
chain 3: MRSGDAEIKGIKPKVIEEYSLSQGSGPSNDSWKSLMSSAKDTPLQYDHMNRESLKKYFNPNAQLIEDPLDKPIQYRVCEKCGKPLALTAIVDHLENHCAGASGKS
chain 4: MTMDTAQLKSQIQQYLVESGNYELISNELKARLLQEGWVDKVKDLTKSEMNINESTNFTQILSTVEPKALEMVSDSTRETVLKQIREFLEEIVDTQ
- Ub-AMC cleavage (yD1 cyclic peptide): yD1 did not inhibit activity of the yeast DUB module
- Ub-AMC cleavage, 50 nM yeast DUB module with 2.5 µM yD1 (yD1 cyclic peptide): Rather than inhibition, yD1 produced a slight increase in cleavage rates

B5: USP7 catalytic domain (protein)
chain: KKHTGYVGLKNQGATCYMNSLLQTLFFTNQLRKAVYMMPTEGDDSSKSVPLALQRVFYELQHSDKPVGTKKLTKSFGWETLDSFMQHDVQELCRVLLDNVENKMKGTCVEGTIPKLFRGKMVSYIQCKEVDYRSDRREDYYDIQLSIKGKKNIFESFVDYVAVEQLDGDNKYDAGEHGLQEAEKGVKFLTLPPVLHLQLMRFMYDPQTDQNIKINDRFEFPEQLPLDEFLQKTDPKDPANYILHAVLVHSGDNHGGHYVVYLNPKGDGKWCKFDDDVVSRCTKEEAIEHNYGGHDDDLSVRHCTNAYMLVYIRESKLSEVLQAVTDHDIPQQLVERLQEEKRIEAQKRKERQE
- ubiquitin-AMC cleavage with 1 µM hD1 (hD1 cyclic peptide): the hD1 peptide had no effect on USP7CD or CYLD activity

B6: CYLD (protein)
chain: MSSGLWSQEKVTSPYWEERIFYLLLQECSVTDKQTQKLLKVPKGSIGQYIQDRSVGHSRIPSAKGKKNQIGLKILEQPHAVLFVDEKDVVEINEKFTELLLAITNCEERFSLFKNRNRLSKGLQIDVGCPVKVQLRSGEEKFPGVVRFRGPLLAERTVSGIFFGVELLEEGRGQGFTDGVYQGKQLFQCDEDCGVFVALDKLELIEDDDTALESDYAGPGDTMQVELPPLEINSRVSLKVGETIESGTVIFCDVLPGKESLGYFVGVDMDNPIGNWDGRFDGVQLCSFACVESTILLHINDIIPALSESVTQERRPPKLAFMSRGVGDKGSSSHNKPKATGSTSDPGNRNRSELFYTLNGSSVDSQPQSKSKNTWYIDEVAEDPAKSLTEISTDFDRSSPPLQPPPVNSLTTENRFHSLPFSLTKMPNTNGSIGHSPLSLSAQSVMEELNTAPVQESPPLAMPPGNSHGLEVGSLAEVKENPPFYGVIRWIGQPPGLNEVLAGLELEDECAGCTDGTFRGTRYFTCALKKALFVKLKSCRPDSRFASLQPVSNQIERCNSLAFGGYLSEVVEENTPPKMEKEGLEIMIGKKKGIQGHYNSCYLDSTLFCLFAFSSVLDTVLLRPKEKNDVEYYSETQELLRTEIVNPLRIYGYVCATKIMKLRKILEKVEAASGFTSEEKDPEEFLNILFHHILRVEPLLKIRSAGQKVQDCYFYQIFMEKNEKVGVPTIQQLLEWSFINSNLKFAEAPSCLIIQMPRFGKDFKLFKKIFPSLELNITDLLEDTPRQCRICGGLAMYECRECYDDPDISAGKIKQFCKTCNTQVHLHPKRLNHKYNPVSLPKDLPDWDWRHGCIPCQNMELFAVLCIETSHYVAFVKYGKDDSAWLFFDSMADRDGGQNGFNIPQVTPCPEVGEYLKMSLEDLHSLDSRRIQGCARRLLCDAYMCMYQSPTMSLYK
- ubiquitin-AMC cleavage with 1 µM hD1 (hD1 cyclic peptide): the hD1 peptide had no effect on USP7CD or CYLD activity
